Test results reported in patent US20240033354A1 (University of California, published 2024).

B1: CSPG4^mini (CSPG4 residues 30-764) (receptor)
chain: ASFFGENHLEVPVATALTDIDLQLQFSTSQPEALLLLAAGPADHLLLQLYSGRLQVRLVLGQEELRLQTPAETLLSDSIPHTVVLTVVEGWATLSVDGFLNASSAVPGAPLEVPYGLFVGGTGTLGLPYLRGTSRPLRGCLHAATLNGRSLLRPLTPDVHEGCAEEFSASDDVALGFSGPHSLAAFPAWGTQDEGTLEFTLTTQSRQAPLAFQAGGRRGDFIYVDIFEGHLRAVVEKGQGTVLLHNSVPVADGQPHEVSVHINAHRLEISVDQYPTHTSNRGVLSYLEPRGSLLLGGLDAEASRHLQEHRLGLTPEATNASLLGCMEDLSVNGQRRGLREALLTRNMAAGCRLEEEEYEDDAYGHYEAFSTLAPEAWPAMELPEPCVPEPGLPPVFANFTQLLTISPLVVAEGGTAWLEWRHVQPTLDLMEAELRKSQVLFSVTRGARHGELELDIPGAQARKMFTLLDVVNRKARFIHDGSEDTSDQLVLEVSVTARVPMPSCLRRGQTYLLPIQVNPVNDPPHIIFPHGSLMVILEHTQKPLGPEVFQAYDPDSACEGLTFQVLGTSSGLPVERRDQPGEPATEFSCRELEAGSLVYVHRGGPAQDLTFRVSDGLQASPPATLKVVAIRPAIQIHRSTGLRLAQGSAMPILPANLSVETNAVGQDVSVLFRVTGALQFGELQKQGAGGVEGAEWWATQAFHQRDVEQGRVRYLSTDPQHHAYDTVENLALEVQ
B2: Repeat1-Fc (CSPG4 Repeat1, residues 410-551, fused to the N-terminus of the Fc fragment of a human IgG1) (Fc fusion)
chain: ELPEPCVPEPGLPPVFANFTQLLTISPLVVAEGGTAWLEWRHVQPTLDLMEAELRKSQVLFSVTRGARHGELELDIPGAQARKMFTLLDVVNRKARFIHDGSEDTSDQLVLEVSVTARVPMPSCLRRGQTYLLPIQVNPVND

Tests used:
[1] = biological target: T1, TcdB1 holotoxin (recombinant full-length TcdB1, VPI10463 strain, expressed in Bacillus megaterium) (Clostridium difficile, VPI10463 strain, UniProt P18177 1-2366); assay: two-step pull-down, first step (FIG. 15C)
T1 construct: also called TcdB1 (1-2366)-holotoxin

[2] = biological target: T1, TcdB1 holotoxin (recombinant …)
[3] = biological target: TcdB2 (recombinant full-length, R20292 strain [sic], expressed in Bacillus megaterium) (Clostridium difficile, R20291 strain …, UniProt P18177 1-2366)

Row | Binder | binding result [1] | Kd [2] [nM] | koff [2] [s⁻¹] | kon [2] [M⁻¹ s⁻¹] | Kd [3] [nM] | koff [3] [s⁻¹] | kon [3] [M⁻¹ s⁻¹]
1 | B1 | binds | – | – | – | – | – | –
2 | B2 | – | ~15.2 | ~0.000108 | ~7060 | ~5.4 | ~4.63e-05 | ~8340
